Source: US20090175786A1 (published 2009)
Where two headings read alike, the source gives them in different places. Each block holds one binder with its values, some of them ahead of it. Where no end group is shown, it is not given here. [ ]: non-standard residue; d: D form. The star is where a group is joined. DOTA = O=C(O)CN1CCN(CC(=O)O)CCN(CC(=O)*)CCN(CC(=O)O)CC1; 4Abz = Nc1ccc(C(=O)O)cc1; Dap = NC[C@H](N)C(=O)O; AEEA = NCCOCCOCC(=O)O; Me2Gly = CN(C)CC(=O)*; Acm = CC(=O)NC*

Experiments:
[1] = target: T1, bombesin receptor subtype 3 (BB3-R), human (human, UniProt P32247 1-399); assay: receptor autoradiography on human tumour sections
T1 construct: whole, on cells; tissue sections, receptor autoradiography
T1 sequence (looked up): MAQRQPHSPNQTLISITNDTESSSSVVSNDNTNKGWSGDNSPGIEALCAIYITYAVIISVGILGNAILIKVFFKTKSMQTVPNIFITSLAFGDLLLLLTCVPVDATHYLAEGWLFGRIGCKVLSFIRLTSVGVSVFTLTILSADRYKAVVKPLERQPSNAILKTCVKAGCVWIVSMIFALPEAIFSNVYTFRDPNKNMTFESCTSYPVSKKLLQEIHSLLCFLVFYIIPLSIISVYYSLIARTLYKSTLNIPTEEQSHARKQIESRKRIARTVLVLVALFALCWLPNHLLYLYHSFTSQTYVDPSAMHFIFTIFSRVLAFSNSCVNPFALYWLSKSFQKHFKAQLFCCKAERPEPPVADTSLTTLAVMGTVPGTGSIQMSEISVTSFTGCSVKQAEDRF
Text: Human ileal carcinoid tissue was used as a source for NMB-R, human prostate carcinoma for GRP-R and human bronchial carcinoid for BB3-R subtype receptors.

[2] = target: T2, neuromedin-B preferring receptor (NMB-R) of C6 rodent glioblastoma cells (rodent, UniProt P24053 1-390, limits assumed); assay: 125I-NMB competition, C6 cells
T2 construct: whole, on cells; also called C6/NMB-R
T2 sequence (looked up): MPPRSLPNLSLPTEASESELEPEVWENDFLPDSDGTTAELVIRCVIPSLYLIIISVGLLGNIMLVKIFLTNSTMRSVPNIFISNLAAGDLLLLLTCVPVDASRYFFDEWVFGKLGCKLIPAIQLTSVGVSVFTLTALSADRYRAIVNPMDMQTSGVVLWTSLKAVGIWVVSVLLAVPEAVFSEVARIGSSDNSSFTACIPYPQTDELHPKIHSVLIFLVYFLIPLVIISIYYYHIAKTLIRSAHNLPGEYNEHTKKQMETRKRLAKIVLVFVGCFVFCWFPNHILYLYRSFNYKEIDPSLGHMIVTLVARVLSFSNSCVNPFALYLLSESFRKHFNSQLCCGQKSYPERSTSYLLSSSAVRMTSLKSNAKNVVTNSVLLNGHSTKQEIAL
Experimental: The binding parameters obtained from the studies were analyzed using a one-site competition non-linear regression analysis with GraphPad Prism.

[3] = target: T2, neuromedin-B preferring receptor …; assay: 125I-NMB competition, C6 cells; remark: listed apart in the source
[4] = target: T3, gastrin releasing peptide receptor (GRP-R), human (human, UniProt P30550 1-384); assay: 125I-BBN competition, PC3 cells
T3 construct: whole, on cells; also called GRP receptor; GRP-preferring receptor
Experimental: (§1) All compounds tested were dissolved in binding buffer and appropriate dilutions were also done in binding buffer. PC3 cells for assay were seeded at a concentration of 2.0×10⁴/well either in 96-well black/clear collagen I cellware plates (Beckton Dickinson Biocoat). Plates were used for binding studies on day 2 post-plating. The plates were checked for confluency (>90% confluent) prior to assay. […] The studies were conducted with an assay volume of 75 μL per well. Triplicate wells were used for each data point. After the addition of the appropriate solutions, plates were incubated for 1 hour at 4° C. Incubation was ended by the addition of 200 μL of ice-cold incubation buffer. Plates were washed 5 times and blotted dry. Radioactivity was detected using either a LKB CompuGamma counter or a microplate scintillation counter.

[5] = target: T3, gastrin releasing peptide receptor …; assay: 125I-BBN competition, PC3 cells; remark: listed apart in the source
Experimental: as §1

[6] = target: T3, gastrin releasing peptide receptor …; assay: 125I-BBN competition, PC3 cells; remark: listed apart in the source
[7] = target: T3, gastrin releasing peptide receptor …; assay: 125I-BBN competition, PC3 cells; remark: listed apart in the source
[8] = target: T3, gastrin releasing peptide receptor …; assay: displacement of 125I-universal ligand, human tumour sections

T3 sequence (P30550 whole entry): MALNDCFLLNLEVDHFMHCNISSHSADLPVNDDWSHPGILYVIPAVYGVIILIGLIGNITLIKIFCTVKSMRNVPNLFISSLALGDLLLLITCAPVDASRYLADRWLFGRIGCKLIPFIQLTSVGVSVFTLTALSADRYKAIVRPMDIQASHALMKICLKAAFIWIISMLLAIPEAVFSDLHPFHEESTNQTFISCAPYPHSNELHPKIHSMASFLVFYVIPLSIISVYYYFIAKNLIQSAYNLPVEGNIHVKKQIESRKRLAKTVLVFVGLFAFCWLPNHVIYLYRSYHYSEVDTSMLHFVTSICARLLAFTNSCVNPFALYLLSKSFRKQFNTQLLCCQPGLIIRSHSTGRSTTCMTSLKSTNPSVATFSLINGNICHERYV

binding result [1]: no binding
B1: ^177Lu-L70 (peptide)
peptide: QWAVGHLM
modifications: N-terminus: 177Lu complex of DO3A-monoamide-Gly-4-aminobenzoic acid; C-terminal amide
notes: also called Lutetium complex of L70

IC50 [6]: 6 nM
B4: N,N-dimethylglycine-Ser-Cys(Acm)-Gly-8-amino-3,6-dioxaoctanoic acid-Arg-BBN(7-14) (peptide)
peptide: RQWAVGHLM
modifications: N-terminus: N,N-dimethylglycine-Ser-Cys(Acm)-Gly-8-amino-3,6-dioxaoctanoic acid; C-terminal amide
notes: also called L9

IC50 [6]: > 50 nM
B6: N,N-dimethylglycine-Ser-Cys(Acm)-Gly-N-1-piperazineacetic acid-Asp-BBN(7-14) (peptide)
peptide: DQWAVGHLM
modifications: N-terminus: N,N-dimethylglycine-Ser-Cys(Acm)-Gly-N-1-piperazineacetic acid; C-terminal amide
notes: also called L33

IC50 [6]: > 50 nM
B8: N,N-dimethylglycine-Ser-Cys(Acm)-Gly-N-4-aminoethyl-N-1-piperazineacetic acid-Asp-BBN(7-14) (peptide)
peptide: DQWAVGHLM
modifications: N-terminus: N,N-dimethylglycine-Ser-Cys(Acm)-Gly-N-4-aminoethyl-N-1-piperazineacetic acid; C-terminal amide
notes: also called L27

IC50 [6]: > 50 nM
B9: N,N-dimethylglycine-Ser-Cys(Acm)-Gly-8-amino-3,6-dioxaoctanoic acid-Glu-BBN(7-14) (peptide)
peptide: EQWAVGHLM
modifications: N-terminus: N,N-dimethylglycine-Ser-Cys(Acm)-Gly-8-amino-3,6-dioxaoctanoic acid; C-terminal amide
notes: also called L13

IC50 [2]: 60 nM
B14: N,N-dimethylglycine-Ser-Cys(Acm)-Gly-KE-QWAVGHLM-NH2 (peptide)
peptide: [Me2Gly]SC(Acm)GKEQWAVGHLM-NH2
SMILES: CSCC[C@H](NC(=O)[C@H](CC(C)C)NC(=O)[C@H](Cc1c[nH]cn1)NC(=O)CNC(=O)[C@@H](NC(=O)[C@H](C)NC(=O)[C@H](Cc1c[nH]c2ccccc12)NC(=O)[C@H](CCC(N)=O)NC(=O)[C@H](CCC(=O)O)NC(=O)[C@H](CCCCN)NC(=O)CNC(=O)[C@H](CSCNC(C)=O)NC(=O)[C@H](CO)NC(=O)CN(C)C)C(C)C)C(N)=O

IC50 [8]: 0.8 nM
B15: ^175Lu-L70 (peptide)
peptide: QWAVGHLM
modifications: N-terminus: 175Lu complex of DO3A-monoamide-Gly-4-aminobenzoic acid; C-terminal amide

IC50 [6]: 50 nM
B16: N,N-dimethylglycine-Ser-Cys(Acm)-Gly-8-amino-3,6-dioxaoctanoic acid-Arg-Gly-BBN(7-14) (peptide)
peptide: RGQWAVGHLM
modifications: N-terminus: N,N-dimethylglycine-Ser-Cys(Acm)-Gly-8-amino-3,6-dioxaoctanoic acid; C-terminal amide
notes: same M-N-O-P-G as printed for L22, other MS; also called L57

Continued, binder first:

B2: DO3A-monoamide-G-Abz4-LWATGHFM-NH2 (peptide)
peptide: {DOTA}-G[4Abz]LWATGHFM-NH2
notes: also called L227
IC50 [2]: 0.8 nM
IC50 [3]: 0.07 nM

B3: DO3A-monoamide-G-Abz4-QWAGHFL-NH2 (peptide)
peptide: {DOTA}-G[4Abz]QWAGHFL-NH2
SMILES: CC(C)C[C@H](NC(=O)[C@H](Cc1ccccc1)NC(=O)[C@H](Cc1c[nH]cn1)NC(=O)CNC(=O)[C@H](C)NC(=O)[C@H](Cc1c[nH]c2ccccc12)NC(=O)[C@H](CCC(N)=O)NC(=O)c1ccc(NC(=O)CNC(=O)CN2CCN(CC(=O)O)CCN(CC(=O)O)CCN(CC(=O)O)CC2)cc1)C(N)=O
notes: also called L224
IC50 [4]: > 500 nM
IC50 [5]: > 500 nM

B5: N,N-dimethylglycine-Ser-Cys(Acm)-Gly-8-amino-3,6-dioxaoctanoic acid-Lys-BBN(7-14) (peptide)
peptide: KQWAVGHLM
modifications: N-terminus: N,N-dimethylglycine-Ser-Cys(Acm)-Gly-8-amino-3,6-dioxaoctanoic acid; C-terminal amide
notes: also called L8
IC50 [6]: 4 nM

B7: N,N-dimethylglycine-Ser-Cys(Acm)-Gly-8-amino-3,6-dioxaoctanoic acid-Asp-BBN(7-14) (peptide)
peptide: DQWAVGHLM
modifications: N-terminus: N,N-dimethylglycine-Ser-Cys(Acm)-Gly-8-amino-3,6-dioxaoctanoic acid; C-terminal amide
notes: also called L10
IC50 [6]: > 50 nM

B10: WAVGHLM-NH2 (peptide)
peptide: WAVGHLM-NH2
notes: also called BBN8-14
IC50 [2]: > 800 nM
IC50 [3]: > 800 nM

B11: N,N-dimethylglycine-Ser-Cys(Acm)-Gly-SS-QWAVGHLM-NH2 (peptide)
peptide: [Me2Gly]SC(Acm)GSSQWAVGHLM-NH2
SMILES: CSCC[C@H](NC(=O)[C@H](CC(C)C)NC(=O)[C@H](Cc1c[nH]cn1)NC(=O)CNC(=O)[C@@H](NC(=O)[C@H](C)NC(=O)[C@H](Cc1c[nH]c2ccccc12)NC(=O)[C@H](CCC(N)=O)NC(=O)[C@H](CO)NC(=O)[C@H](CO)NC(=O)CNC(=O)[C@H](CSCNC(C)=O)NC(=O)[C@H](CO)NC(=O)CN(C)C)C(C)C)C(N)=O
IC50 [7]: 10 nM

B12: N,N-dimethylglycine-Ser-Cys(Acm)-Gly-SR-QWAVGHLM-NH2 (peptide)
peptide: [Me2Gly]SC(Acm)GSRQWAVGHLM-NH2
SMILES: CSCC[C@H](NC(=O)[C@H](CC(C)C)NC(=O)[C@H](Cc1c[nH]cn1)NC(=O)CNC(=O)[C@@H](NC(=O)[C@H](C)NC(=O)[C@H](Cc1c[nH]c2ccccc12)NC(=O)[C@H](CCC(N)=O)NC(=O)[C@H](CCCNC(=N)N)NC(=O)[C@H](CO)NC(=O)CNC(=O)[C@H](CSCNC(C)=O)NC(=O)[C@H](CO)NC(=O)CN(C)C)C(C)C)C(N)=O
IC50 [2]: 2 nM

B13: N,N-dimethylglycine-Ser-Cys(Acm)-Gly-SK-QWAVGHLM-NH2 (peptide)
peptide: [Me2Gly]SC(Acm)GSKQWAVGHLM-NH2
IC50 [7]: 2 nM

B17: N,N-dimethylglycine-Ser-Cys(Acm)-Gly-2,3-diaminopropionic acid-8-amino-3,6-dioxaoctanoic acid-Gly-BBN(7-14) (peptide)
peptide: {Me2Gly-Ser-Cys(Acm)}-G[Dap][AEEA]GQWAVGHLM-NH2
notes: same M-N-O-P-G as printed for L61, other MS; also called L26
IC50 [6]: 30 nM
